Laboratory results: publication PMC6017339, “A Turn-on Fluorescence Sensor for Heparin Detection Based on a Release of Taiwan Cobra Cardiotoxin from a DNA Aptamer or Adenosine-Based Molecular Beacon”

Target: T1, cardiotoxin 3 (CTX3) (Naja naja atra (Taiwan cobra), UniProt P60301 22-81)
T1 sequence: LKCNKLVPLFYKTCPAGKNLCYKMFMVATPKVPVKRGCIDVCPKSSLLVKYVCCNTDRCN
Test: fluorescence quenching titration; 20 nM aptamer; >80% quenching, saturated at 400 nM CTX3; 10 mM HEPES pH 8.0, 30 C, 5 min incubation, no added salt stated; 20 nM aptamer or 10 nM MB
Details: protein: native; label: 5'-FAM; 3'-DABCYL

GCGAGGTGTTCGAGAGTTAGGGGCGACATGACCAAACGTT (ssDNA) [DNA aptamer against CTX3]: binds.
